From patent publication US11945858B2, “Antibodies and antibody fragments against HNAV1.7 channel and their use in pain and cancer indications” (NATIONAL RESEARCH COUNCIL OF CANADA, priority 2018, dated 2024) come the findings set out here.

One experiment concerns VHH FC5. The experiment is described as follows: Surface Plasmon Resonance of mAbs, FC5 control. The note with it: SPR; 25 °C. It counts as binding. How it is done: (§1) Surface Plasmon Resonance of mAbs. FC5 and FC5DIE3IR proteins were SEC purified using a Superdex 75 column (GE Healthcare) connected to an AKTAPurifier (GE Healthcare) in HBS-EP+ running buffer (10 mM HEPES, pH 7.4, containing 150 mM NaCl, 3 mM EDTA and 0.05% P20) at a flow rate of 1 ml/min. Monomeric eluted peaks were used to flow over Fc-capture 3A8 mAb surfaces. To prepare the 3A8 mAb surfaces, approximately 6000 RUs of anti-mouse IgG (GE Healthcare) was first immobilized on CM5 Series S sensor chips (GE Healthcare) at pH 5.0, using standard amine coupling methods previously reported (Hussack et al., 2011) and according to the manufacturer's instructions (GE Healthcare). HBS-EP running buffer used for SPR experiments. The mAb 3A8 was captured on the anti-mouse IgG surface using 10 μg/ml of mAb, 30 sec contact time and flow rate of 10 μl/min. IMAC-purified DI-D VHH was passed through a Superdex 75 (GE Healthcare) column for SEC purification in HBS-EP buffer (10 mM HEPES, pH 7.4, containing 150 mM NaCl, 3 mM EDTA and 0.005% P20), connected to an AKTAPurifier (GE Healthcare) at a flow rate of 1 ml/min. Test binding experiments of FC5 control and FC5DIE3IR involved flowing 1 μM concentrations of SEC-pure material over the mAb surface at a flow rate of 30 μl/min for 5 min. Surfaces could be regenerated using 10 mM glycine, pH 1.7, with a 120 sec pulse at 20 μl/min. All SPR experiments were evaluated with Biacore T200 Software v 3.0. For kinetic analysis, single cycle kinetic analysis was used by flowing a range of FC5DIE3IR concentrations (320 nM-20 nM) at a flow rate of 30 μl/min, with 600 sec contact time and 1200 sec dissociation. Regeneration conditions were the same as above. Data were fit to a 1:1 binding model and analyzed using the Biacore T200 Software v3.0.
(§2) Surfaces were regenerated by washing with running buffer (HBS-EP). Data were analyzed with BIAevaluation 4.1 software as described (Hussack et al., 2011) and affinities determined using the steady state binding model.
(§3) Surface Plasmon Resonance (SPR) for monoclonal antibodies.

The target in a further experiment is hNav1.7 channels (Homo sapiens, UniProt Q15858, W1161R). Kind of experiment: Patch-clamp whole-cell recordings in hNav1.7-HEK293 cells. Format: cell-based. (In general: Patch clamp records ionic current or voltage across a cell membrane.)
The test system of experiment [1] is overlapping antigen-peptides derived from DIE3IR. Kind of experiment: ELISA of mAbs on overlapping antigen-peptides derived from DIE3IR. Format: binding, human. The settings on record: peptides coated 100-500 ng/well. Here is the method: The peptides were custom-synthesized (Biomatik) and tested for antibody binding by ELISA. […] The wells were blocked with 1% BSA in TBS-T for 30 min and then incubated with 1:1000 dilution of anti-hNav1.7 mAb at room temperature (RT) for one hr. Following three TBS-T washes (3×5 min), mAb binding to peptides was detected by incubating with HRP-conjugated anti-mouse Fc antibody for 90 min at RT in TBS-T. The bound antibody was detected with SureBlue™ TMB reagent kit (KPL) by colorimetric measurement at 450 nm according to manufacturer's instructions.
To identify the epitope for mAb 3A8 on DIE3IR, seven overlapping antigen-peptides were generated (FIG. 15A) and an ELISA was performed to determine the binding between these peptides and the various mAb (FIGS. 15C to 15I).

The target of another experiment is T1, FC5DIE3IR (Homo sapiens, UniProt Q15858).
T1 construct: The supernatant was collected and loaded on a 5 ml MabSelect™ SuRe™ column; made in house; host or cells: CHO-3E7 (transient, pTT5 vector), purified from supernatant
Kind of experiment: Surface Plasmon Resonance of mAbs, FC5DIE3IR. It counts as binding. How it is done:
as §1, §2, §3

In the next experiment the test system is CHO-3E7. The experiment is described as follows: Cell-ELISA on live CHO-3E7 cells. It counts as cell-based, Chinese hamster. The note with it: hybridoma supernatant, OD450 nm. Here is the method: Cell-ELISA. Sterile 96-well plates (Costar #3595) were pre-treated with 50 μl/well of branched polyethyleneimine (PEI, Sigma Cat #408727) at 25 μg/ml in PBS for 30 min at room temperature. PEI was removed and CHO-3E7 or hNAv1.7-CHO (ChanTest cat #CT4003) were seeded at 6×10^5 cells per well in FreeStyle F17 Expression Medium (Gibco Cat #A1383501) and incubated overnight at 37° C., 5% CO2. Microplates were blocked with Starting block (Thermofisher Cat #37538) for 30 min at room temperature, and 50 μl of hybridoma supernatants were added and incubated at 4° C. for 3 h. Plates were washed 5 times with PBS and incubated for one hour at 4° C. with 50 μl of secondary antibody HRP-conjugated F(ab′)2 goat anti-mouse IgG (H+L) (Jackson Immunoresearch #115-036-062) diluted 1/5000 in blocking buffer. After 10 washes with PBS, 50 μl of TMB substrate solution (Pierce Cat #34021) was added and further incubated for 60 min at room temperature. Twenty-five μl/well of stop solution ([…] 1M) was added and OD450 nm measurements were done using a microplate reader (Spectramax 340 PC, Molecular Devices).

For experiment [2], the system named is OD1-evoked Nav1.7-mediated spontaneous pain behaviours. It counts as in vivo, mouse. The settings on record: 100 μg, injected 60 minutes prior to OD1; 20 min after the injection.
Where [3] appears, read: −20 mV, after antibody application (1 μM).

Where “and” joins values, the source holds several entries; their conditions need not be identical. Identical values can stand only once. Entries after “also recorded” stand apart in the source; their conditions may differ.

Sequence of VHH FC5 (as listed by the source): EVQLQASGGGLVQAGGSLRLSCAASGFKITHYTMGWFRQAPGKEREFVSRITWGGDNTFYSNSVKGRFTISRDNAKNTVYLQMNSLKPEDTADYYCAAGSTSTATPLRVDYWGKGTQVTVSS

B1: 3A8: anti-hNav1.7 mouse monoclonal antibody, IgG2a, k; heavy chain SEQ ID NO: 12, light chain SEQ ID NO: 18 (antibody, V domains shown)
VH: QVQLQQPGAELVKPGASVKLSCKASGYTFTNYWMHWVKQRPGQGLEWIGEINPSNGRANYNEKFKSKATLTVDKSSSTAYMQLSSLTSEDSAVYYCARSPYGYYDYWGQGTTLTVSSAKTTAPSVYPLAP
VL: DVLMTQTPLSLPVSLGDQASISCRSSQSLLHSNGNTYFHWYLQKPGQSPKLLIYKVSNRFFGVPDRFSGSGSGTDFTLKISRVEAEDLGVYFCSQITHVPLTFGAGTKLELKRADAAPTVSIFPPSS
modifications: Heavy chain of the 3A8 antibody without leader sequence; Light chain of the 3A8 antibody without leader sequence
As to B1, the “Binding to FC5 control (comment, in words)” value in the experiment on VHH FC5 is given as “did not bind FC5; also recorded: No binding”. Also, in the experiment with hNav1.7 channels (1 μM), the “Voltage-dependence of activation (shift V1/2 activation)” value was −6.0±1.0 mV and −6.0 mV; the “Voltage-dependence of the steady-state fast inactivation (shift V1/2 inactivation)” value is −7.1±1.7 mV and −7.1 mV. For the same molecule, the “Reduction of the hNav1.7 current in the time course” value in the experiment with hNav1.7 channels (1 μM, single time-course recording (FIG. 6B)) is “approx. 13%”. Moreover, the “Onset time of the effect (exponential fit of the current decay, T)” value with hNav1.7 channels (1 μM, single time-course recording of the figure) turned out to be 176 s. In addition, the “Effect on hNav1.7 currents (in words)” value with hNav1.7 channels (example recordings, 1-3 μM) was “reduced the hNav1.7 currents in a dose dependent manner”. Further, in the experiment with hNav1.7 channels (setting [3]), the “Fast inactivation (time constant)” value is 0.72 ± 0.08 ms and 0.72 ms; the Time-to-peak is 0.88 ± 0.07 ms and 0.88 ms. In experiment [1], the “Peptide in which the binding motif resides / that is bound” value is on record as “pep #2a”. Further, in the experiment with FC5DIE3IR, the “ka” value is 7050 M⁻¹ s⁻¹ and the “kd” value was 0.000259 s⁻¹. Also, in the experiment with FC5DIE3IR (Fc-captured mAb, FC5-DIE3IR flowed, 25 °C), the “Rmax (RU)” value is listed as 80 RU. Also, the “Binding to FC5DIE3IR (comment, in words)” value with FC5DIE3IR (SPR, 25 °C) is “bound specifically FC5DIE3IR; also recorded: strong and specific binding; also recorded: strongly and specifically bound; also recorded: extremely slow off rate”. Further, the “ELISA on live cells (duplicates) CHO-3E7” value with CHO-3E7 (duplicate 1) was −0.027. Besides, the “ELISA on live cells (duplicates) CHO-3E7” value in the experiment on CHO-3E7 (duplicate 2) is −0.018. In addition, the “Time spent in pain behaviors (saline plus OD1 = 100%)” value in experiment [2] is 73.76%±5.38.
